Results: patent publication US9176064B2, “Bisubstrate fluorescent probes for protein kinase CK2” (University of Tartu, priority 2012, dated 2015)
Where a SMILES comes first, the peptide text is derived from it. [ ]: non-standard residue; d: D form. The star is where a group is joined. X1 = O=C(CCCCCCCn1cnc2c(Br)c(Br)c(Br)c(Br)c21)*

Tests used:
Assay in all cases: Kinase panel residual activity
Format in all cases: biochemical
Conditions in all cases: compound at 1 micromolar
DAPK1 = DAPK1 (Homo sapiens, UniProt P53355)
MAP4K3 = molecular target: T1, MAP4K3 (Homo sapiens, UniProt Q8IVH8)
T1 sequence (Q8IVH8 1-894): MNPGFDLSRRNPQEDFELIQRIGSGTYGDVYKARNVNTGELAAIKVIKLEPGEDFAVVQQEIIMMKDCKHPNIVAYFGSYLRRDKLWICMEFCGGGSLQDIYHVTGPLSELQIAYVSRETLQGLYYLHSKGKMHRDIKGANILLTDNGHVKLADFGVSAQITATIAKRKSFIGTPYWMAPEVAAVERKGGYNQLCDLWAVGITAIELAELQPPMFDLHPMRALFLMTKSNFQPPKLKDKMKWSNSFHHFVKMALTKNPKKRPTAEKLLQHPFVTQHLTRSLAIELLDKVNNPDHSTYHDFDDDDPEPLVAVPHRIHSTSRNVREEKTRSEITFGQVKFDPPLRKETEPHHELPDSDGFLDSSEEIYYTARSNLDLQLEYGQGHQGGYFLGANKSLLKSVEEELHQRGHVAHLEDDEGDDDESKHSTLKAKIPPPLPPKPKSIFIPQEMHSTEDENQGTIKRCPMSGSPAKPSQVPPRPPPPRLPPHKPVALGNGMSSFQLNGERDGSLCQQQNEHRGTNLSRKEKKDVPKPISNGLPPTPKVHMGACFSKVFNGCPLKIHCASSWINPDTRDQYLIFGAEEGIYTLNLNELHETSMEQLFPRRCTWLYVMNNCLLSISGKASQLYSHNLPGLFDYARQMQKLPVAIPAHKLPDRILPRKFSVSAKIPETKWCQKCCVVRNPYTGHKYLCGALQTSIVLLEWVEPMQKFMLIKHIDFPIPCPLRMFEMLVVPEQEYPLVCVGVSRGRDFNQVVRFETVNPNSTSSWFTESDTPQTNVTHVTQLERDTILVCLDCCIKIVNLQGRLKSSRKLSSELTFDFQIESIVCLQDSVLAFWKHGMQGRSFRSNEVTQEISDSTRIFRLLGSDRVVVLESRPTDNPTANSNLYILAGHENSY

MINK1 = MINK1 (Homo sapiens, UniProt Q8N4C8)
TLK1 = molecular target: T2, TLK1 (Homo sapiens, UniProt Q9UKI8)
T2 sequence (Q9UKI8 1-766): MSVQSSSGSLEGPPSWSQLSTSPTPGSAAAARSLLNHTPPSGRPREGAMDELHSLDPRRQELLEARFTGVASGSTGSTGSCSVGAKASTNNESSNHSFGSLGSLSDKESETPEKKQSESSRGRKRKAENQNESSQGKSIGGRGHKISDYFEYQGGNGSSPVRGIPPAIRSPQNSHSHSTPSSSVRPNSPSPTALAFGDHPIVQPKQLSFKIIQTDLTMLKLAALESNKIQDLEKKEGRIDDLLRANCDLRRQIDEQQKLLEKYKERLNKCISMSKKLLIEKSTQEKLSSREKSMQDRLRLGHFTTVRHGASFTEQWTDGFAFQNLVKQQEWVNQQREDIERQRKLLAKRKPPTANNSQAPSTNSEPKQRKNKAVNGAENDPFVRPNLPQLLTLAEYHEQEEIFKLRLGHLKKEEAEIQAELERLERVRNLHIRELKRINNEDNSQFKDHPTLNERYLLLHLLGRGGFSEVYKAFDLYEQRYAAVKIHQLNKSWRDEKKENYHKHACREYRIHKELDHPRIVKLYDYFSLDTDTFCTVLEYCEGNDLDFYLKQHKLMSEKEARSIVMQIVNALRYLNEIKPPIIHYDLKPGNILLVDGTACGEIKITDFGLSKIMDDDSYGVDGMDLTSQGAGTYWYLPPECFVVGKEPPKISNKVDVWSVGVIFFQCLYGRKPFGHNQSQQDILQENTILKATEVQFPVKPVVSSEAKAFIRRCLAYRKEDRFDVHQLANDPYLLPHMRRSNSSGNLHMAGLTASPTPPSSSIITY

MARK4 = molecular target: T3, MARK4 (Homo sapiens, UniProt Q96L34)
T3 sequence (Q96L34 1-752): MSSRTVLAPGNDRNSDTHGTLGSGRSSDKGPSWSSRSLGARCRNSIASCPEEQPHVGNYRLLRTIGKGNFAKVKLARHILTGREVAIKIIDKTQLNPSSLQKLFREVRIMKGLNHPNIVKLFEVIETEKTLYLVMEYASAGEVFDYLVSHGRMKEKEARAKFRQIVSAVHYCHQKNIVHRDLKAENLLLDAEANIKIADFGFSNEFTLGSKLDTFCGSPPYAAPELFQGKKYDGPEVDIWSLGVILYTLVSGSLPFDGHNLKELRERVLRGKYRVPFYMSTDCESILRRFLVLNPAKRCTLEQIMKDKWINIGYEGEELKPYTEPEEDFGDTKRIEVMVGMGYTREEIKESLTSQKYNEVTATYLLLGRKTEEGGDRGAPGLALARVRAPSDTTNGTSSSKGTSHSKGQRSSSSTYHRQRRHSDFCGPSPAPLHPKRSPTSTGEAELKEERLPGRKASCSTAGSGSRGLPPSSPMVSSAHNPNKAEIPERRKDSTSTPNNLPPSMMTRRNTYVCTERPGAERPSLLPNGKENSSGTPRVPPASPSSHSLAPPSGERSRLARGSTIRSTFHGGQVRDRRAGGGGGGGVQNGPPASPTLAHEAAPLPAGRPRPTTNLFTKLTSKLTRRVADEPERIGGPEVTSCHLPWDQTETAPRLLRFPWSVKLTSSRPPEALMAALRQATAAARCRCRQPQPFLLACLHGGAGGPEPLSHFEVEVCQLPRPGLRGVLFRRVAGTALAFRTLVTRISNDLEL

IRR = IRR (Homo sapiens, UniProt P14616)
Sequence of IRR (P14616 27-1297, species assumed): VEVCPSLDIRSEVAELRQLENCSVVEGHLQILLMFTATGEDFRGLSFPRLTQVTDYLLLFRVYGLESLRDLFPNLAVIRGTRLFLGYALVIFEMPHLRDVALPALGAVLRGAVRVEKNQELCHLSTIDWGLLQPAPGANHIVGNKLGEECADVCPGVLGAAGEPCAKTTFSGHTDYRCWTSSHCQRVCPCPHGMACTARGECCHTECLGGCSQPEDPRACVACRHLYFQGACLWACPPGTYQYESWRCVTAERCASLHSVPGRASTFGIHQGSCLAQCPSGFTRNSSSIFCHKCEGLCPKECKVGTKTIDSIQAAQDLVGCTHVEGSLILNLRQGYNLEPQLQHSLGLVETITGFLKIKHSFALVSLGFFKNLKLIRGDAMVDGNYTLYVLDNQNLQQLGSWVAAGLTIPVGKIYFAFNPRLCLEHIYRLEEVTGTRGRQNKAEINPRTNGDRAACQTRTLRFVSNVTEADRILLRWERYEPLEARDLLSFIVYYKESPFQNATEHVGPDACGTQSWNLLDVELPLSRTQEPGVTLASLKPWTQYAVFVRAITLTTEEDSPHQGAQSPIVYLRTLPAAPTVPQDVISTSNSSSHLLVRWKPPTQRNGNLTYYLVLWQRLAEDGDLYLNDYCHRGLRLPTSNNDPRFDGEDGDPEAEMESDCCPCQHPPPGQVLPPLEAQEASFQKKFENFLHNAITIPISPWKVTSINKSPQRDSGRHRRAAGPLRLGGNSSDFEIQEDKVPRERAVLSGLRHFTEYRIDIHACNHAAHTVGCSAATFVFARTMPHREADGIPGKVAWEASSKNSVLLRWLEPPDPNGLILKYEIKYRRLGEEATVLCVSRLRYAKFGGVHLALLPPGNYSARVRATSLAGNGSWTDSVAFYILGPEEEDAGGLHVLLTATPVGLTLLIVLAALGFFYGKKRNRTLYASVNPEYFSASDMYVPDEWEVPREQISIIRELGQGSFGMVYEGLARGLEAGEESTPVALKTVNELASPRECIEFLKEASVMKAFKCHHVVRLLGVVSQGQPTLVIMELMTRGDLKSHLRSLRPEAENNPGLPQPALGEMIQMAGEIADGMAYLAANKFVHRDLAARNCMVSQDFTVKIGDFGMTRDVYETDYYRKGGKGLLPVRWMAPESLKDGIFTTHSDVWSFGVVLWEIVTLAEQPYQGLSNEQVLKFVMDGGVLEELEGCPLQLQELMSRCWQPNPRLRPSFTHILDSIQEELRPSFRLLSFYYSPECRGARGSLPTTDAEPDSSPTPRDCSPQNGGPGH

PDGFRA = PDGFRA (Homo sapiens, UniProt P16234)
Sequence of PDGFRA (P16234 24-1089, species assumed): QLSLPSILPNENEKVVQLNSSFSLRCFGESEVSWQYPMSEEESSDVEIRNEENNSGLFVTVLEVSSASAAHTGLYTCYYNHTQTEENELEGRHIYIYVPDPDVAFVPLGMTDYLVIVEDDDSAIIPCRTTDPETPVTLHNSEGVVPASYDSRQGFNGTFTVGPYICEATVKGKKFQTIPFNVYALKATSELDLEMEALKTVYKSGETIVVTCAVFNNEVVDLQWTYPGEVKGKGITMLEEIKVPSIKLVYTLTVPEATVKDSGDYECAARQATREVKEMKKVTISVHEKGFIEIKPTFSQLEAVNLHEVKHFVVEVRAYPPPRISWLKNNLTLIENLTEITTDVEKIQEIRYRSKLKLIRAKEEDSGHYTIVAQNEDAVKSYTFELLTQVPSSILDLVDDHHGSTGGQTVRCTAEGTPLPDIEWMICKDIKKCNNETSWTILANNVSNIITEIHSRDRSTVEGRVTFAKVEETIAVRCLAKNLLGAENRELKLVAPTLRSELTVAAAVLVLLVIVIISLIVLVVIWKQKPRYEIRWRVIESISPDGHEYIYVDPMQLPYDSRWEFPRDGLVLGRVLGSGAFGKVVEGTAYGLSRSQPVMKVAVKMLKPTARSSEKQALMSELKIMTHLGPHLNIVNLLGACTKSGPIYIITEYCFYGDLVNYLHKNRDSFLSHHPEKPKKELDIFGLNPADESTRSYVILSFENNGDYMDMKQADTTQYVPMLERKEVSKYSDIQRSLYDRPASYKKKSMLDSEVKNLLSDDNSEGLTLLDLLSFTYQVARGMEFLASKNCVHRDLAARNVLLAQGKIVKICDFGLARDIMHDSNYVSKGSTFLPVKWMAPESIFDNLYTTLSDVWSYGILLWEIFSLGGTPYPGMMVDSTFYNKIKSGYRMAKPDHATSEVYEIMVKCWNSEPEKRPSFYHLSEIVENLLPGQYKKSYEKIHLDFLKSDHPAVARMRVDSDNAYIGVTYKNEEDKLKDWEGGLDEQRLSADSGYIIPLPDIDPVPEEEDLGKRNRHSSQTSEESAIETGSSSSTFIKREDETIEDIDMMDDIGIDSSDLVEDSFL

PAK5 = PAK5 (Homo sapiens, UniProt Q9P286)
WNK1 = WNK1 (Homo sapiens, UniProt Q9H4A3)
Sequence of WNK1 (Q9H4A3 whole entry, species assumed): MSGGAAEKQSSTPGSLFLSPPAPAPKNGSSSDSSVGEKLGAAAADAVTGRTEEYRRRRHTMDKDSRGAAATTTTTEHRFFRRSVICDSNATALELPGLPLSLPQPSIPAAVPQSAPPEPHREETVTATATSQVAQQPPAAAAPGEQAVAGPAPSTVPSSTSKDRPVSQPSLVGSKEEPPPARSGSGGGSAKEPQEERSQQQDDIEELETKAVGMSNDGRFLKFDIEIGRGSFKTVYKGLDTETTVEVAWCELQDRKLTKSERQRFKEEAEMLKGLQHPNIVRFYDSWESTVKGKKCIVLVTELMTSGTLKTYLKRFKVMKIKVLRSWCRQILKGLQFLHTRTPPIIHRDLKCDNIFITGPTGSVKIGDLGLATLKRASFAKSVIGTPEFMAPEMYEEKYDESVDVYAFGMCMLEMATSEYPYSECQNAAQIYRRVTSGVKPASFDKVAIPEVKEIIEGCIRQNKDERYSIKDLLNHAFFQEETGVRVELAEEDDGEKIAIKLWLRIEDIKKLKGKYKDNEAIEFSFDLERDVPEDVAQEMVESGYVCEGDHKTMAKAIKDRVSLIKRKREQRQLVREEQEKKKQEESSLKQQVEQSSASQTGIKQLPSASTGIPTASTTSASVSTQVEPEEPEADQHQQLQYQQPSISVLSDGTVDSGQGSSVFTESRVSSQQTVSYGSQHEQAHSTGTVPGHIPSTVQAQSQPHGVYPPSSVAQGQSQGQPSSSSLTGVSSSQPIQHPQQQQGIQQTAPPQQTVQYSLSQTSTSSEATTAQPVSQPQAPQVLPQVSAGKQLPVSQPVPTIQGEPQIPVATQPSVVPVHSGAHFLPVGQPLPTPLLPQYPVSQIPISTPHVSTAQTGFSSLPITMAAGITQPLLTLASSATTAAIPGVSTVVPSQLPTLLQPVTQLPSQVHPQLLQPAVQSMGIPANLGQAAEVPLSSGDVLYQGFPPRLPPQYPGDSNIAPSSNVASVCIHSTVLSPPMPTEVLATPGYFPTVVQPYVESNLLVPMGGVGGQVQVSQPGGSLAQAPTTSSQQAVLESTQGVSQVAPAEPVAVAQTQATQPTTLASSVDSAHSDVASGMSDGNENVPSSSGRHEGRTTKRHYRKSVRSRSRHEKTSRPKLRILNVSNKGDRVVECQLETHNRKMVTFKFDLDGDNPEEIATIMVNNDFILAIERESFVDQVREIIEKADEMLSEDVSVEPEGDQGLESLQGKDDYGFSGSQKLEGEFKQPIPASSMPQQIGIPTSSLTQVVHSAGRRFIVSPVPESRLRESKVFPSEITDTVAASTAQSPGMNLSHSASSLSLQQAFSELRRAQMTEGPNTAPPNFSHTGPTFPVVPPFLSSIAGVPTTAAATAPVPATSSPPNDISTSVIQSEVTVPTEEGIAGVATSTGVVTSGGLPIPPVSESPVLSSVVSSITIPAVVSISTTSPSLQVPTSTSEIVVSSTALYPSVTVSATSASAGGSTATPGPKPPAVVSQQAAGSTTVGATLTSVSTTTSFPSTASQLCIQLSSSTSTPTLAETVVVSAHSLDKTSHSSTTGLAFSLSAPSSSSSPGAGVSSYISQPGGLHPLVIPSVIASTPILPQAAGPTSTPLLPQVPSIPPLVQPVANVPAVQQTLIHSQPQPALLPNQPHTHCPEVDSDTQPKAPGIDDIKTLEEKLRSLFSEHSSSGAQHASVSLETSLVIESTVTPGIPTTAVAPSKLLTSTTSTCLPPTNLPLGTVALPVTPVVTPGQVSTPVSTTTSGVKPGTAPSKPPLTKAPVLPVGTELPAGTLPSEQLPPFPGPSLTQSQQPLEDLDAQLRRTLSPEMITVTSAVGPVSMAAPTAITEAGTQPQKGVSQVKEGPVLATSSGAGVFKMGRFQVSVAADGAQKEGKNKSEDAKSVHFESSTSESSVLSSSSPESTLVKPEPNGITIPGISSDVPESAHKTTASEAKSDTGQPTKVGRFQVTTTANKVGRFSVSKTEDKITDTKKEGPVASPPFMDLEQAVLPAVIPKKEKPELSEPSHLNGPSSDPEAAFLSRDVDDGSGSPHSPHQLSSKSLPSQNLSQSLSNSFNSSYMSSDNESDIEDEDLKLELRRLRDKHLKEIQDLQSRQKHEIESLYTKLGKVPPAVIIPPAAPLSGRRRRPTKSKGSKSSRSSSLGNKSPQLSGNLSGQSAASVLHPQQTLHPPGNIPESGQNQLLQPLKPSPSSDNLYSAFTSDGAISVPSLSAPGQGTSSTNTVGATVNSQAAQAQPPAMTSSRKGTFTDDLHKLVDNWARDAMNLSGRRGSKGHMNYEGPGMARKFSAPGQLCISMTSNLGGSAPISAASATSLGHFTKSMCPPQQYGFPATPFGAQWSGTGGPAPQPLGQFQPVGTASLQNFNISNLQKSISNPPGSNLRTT

MAP4K5 = MAP4K5 (Homo sapiens, UniProt Q9Y4K4)

## NCCCC[C@H](NC(=O)[C@H](CC(=O)O)NC(=O)[C@H](CC(=O)O)NC(=O)[C@H](CC(=O)O)NC(=O)[C@H](CC(=O)O)NC(=O)[C@H](CC(=O)O)NC(=O)[C@@H](CC(=O)O)NC(=O)CCCCCCCn1cnc2c(Br)c(Br)c(Br)c(Br)c21)C(=O)O [TBBI-OcA-(D-Asp)-(L-Asp)5-(L-Lys)-OH] (X1-[dD]DDDDDK-OH)
DAPK1
  remaining activity at 1 µM: 84%
MAP4K3
  remaining activity at 1 µM: 86%
MINK1
  remaining activity at 1 µM: 139%
TLK1
  remaining activity at 1 µM: 107%
MARK4
  remaining activity at 1 µM: 75%
IRR
  remaining activity at 1 µM: 55%
PDGFRA
  remaining activity at 1 µM: 77%
PAK5
  remaining activity at 1 µM: 81%
WNK1
  remaining activity at 1 µM: 88%
MAP4K5
  remaining activity at 1 µM: 132%
